{"source": "the DeepSol protein solubility set", "data": [{"assay": "soluble on expression in E. coli; label from the status in PepcDB or PDB records", "values": [{"sequence": "SLVARSVVVSAEAVYSHEGEYVGDHVLVDEGLVKSISRGEPHVSVGKRVAVKGFLLPPLVDAHLHMRSLGASFRIVNLKGASSPEEVAKRLAAANSPIAVGRGWNEEEFRPGSRLDRRILDSYLGEKPALAVRICGHVAVANSAFIRESGVDKLFPNLVDRERGLLLEDAVSYAVSVAMKTYNNEELLRDAASALASVGVFGVSSMACSEEEVRALSLIGDALEVRVACYLRRGVEPPPKRAGARWSIVGVKLFADGSLGGRTAYLRRPYISGENEGWRGLKLLSSRDIAEEAVSNSHRGLATAVHAIGDAALDEVLEGFSNAISRGVEPGMLRVEHASLAWPNQIDRLASLRVWTVVQPLFRVSDWWLESRVGSDMLQAAYPFASMLRAGVKLALSTDAPVETYDPAETFKAAVGLCSSRLCRESESLTPRETLKLYTLNSALASGGPVAWLGRLRRGAPALFAVANVDVLNSGRKELEKLKFRGLNLAK", "soluble on expression in E. coli": "not soluble"}, {"sequence": "RHRCIGLTVETKPDWFFEREIDEALAYGTTKVELGVQNIDDRILAINNRGHTVADIARSTQLARDAGLKIVYHIMPGMYGSSFEKDLKSFDLMINDERFKPDMLKIYPTLVTQGTGLYNLWKNGKYRPYTTAETVDLIVEFMRRMPDWIRIQRIQR", "soluble on expression in E. coli": "not soluble"}, {"sequence": "MSVIHPLQNLLTSRDGSLVFAIIKNCILSFKYQSPNHWEFAGKWSDDFDKIQESRNTTAKEQQGQSSENENENKKLKSNKGDSIKRTAAKVPSPGLGAPPIYSYIRNLRLTSDESRLIACADSDKSLLVFDVDKTSKNVLKLRKRFCFSKRPNAISIAEDDTTVIIADKFGDVYSIDINSIPEEKFTQEPILGHVSMLTDVHLIKDSDGHQFIITSDRDEHIKISHYPQCFIVDKWLFGHKHFVSSICCGKDYLLLSAGGDDKIFAWDWKTGKNLSTFDYNSLIKPYLNDQHLAPPRFQNENNDIIEFAVSKIIKSKNLPFVAFFVEATKCIIILEMSEKQKGDLALKQIITFPYNVISLSAHNDEFQVTLDNKESSGVQKNFAKFIEYNLNENSFVVNNEKSNEFDSAIIQSVQGDSNLVTKKEEIYPLYNVSSLRKHGEHYSHHHHHH", "soluble on expression in E. coli": "soluble"}, {"sequence": "MSLKTKFGKCIYISPSGYKVYQNLLYRWLTLGSEAWQTVINRYIPRRPGLHYLQILTLMARKFPNDCCLLGLGGAGIAHLLGAQKTIRSIVAVESSEEVIQIAKKFFMTDLIPHFTITHQNARDFVRENKKTFQHMLLDLYDATHFPDECHSMDFFIHCKKQLTDDGFLAVNLANSQEQWALVQLIKKQFPSNIIIPIKKCANIVVIASKNDNKDLFIKQVRNTNEIKKITWVKDWGYVAEYEGHHHHHH", "soluble on expression in E. coli": "not soluble"}, {"sequence": "MGSDKIHHHHHHMDDRPLFGPFARKGSYSRVQVFDHLFADDRFTALYQEIAILPEVDELMLYRRYLQKEDRVLVHGNFSATLFNTLCAEGYDLYLVESELTRIAGIADPYLHRVYGLSNEVVDVMGSHAFNKIILPGTTIARYSRGELLLFFRNIRHLLATDGQLLISIHNADYLRQNVQPIASRRMEDCTLFYGQKVDRDRLIFNTYLKSASDEKVGYVVEHLYETDTLFEFAKLSRYRGRTLYAGKSISILEFDKIG", "soluble on expression in E. coli": "not soluble"}, {"sequence": "MGSDKIHHHHHHMKFIFDIDGTICFKGNAVTKGIIHALDVCQSKGHEVIFASARPIRDLLPVLPNHMHHYSMIGGNGAFIAKGKDTIEVITFDPGTVSAIHSIIKKHSLSYLIDSHWNYSYTGSENHPIYKNIDPNQLANNVHIDEIKEVVKVVLFPDHVQKEYIMNMLTELPIRIYEHDNEGIVDISPENIDKWVGLQRLGIKEREFVVFGNDSNDLSMFLHAKESICVGSHEVLLGYASTCLKIDEQSIVNKIIELSELYA", "soluble on expression in E. coli": "not soluble"}, {"sequence": "MDEPVDVELVLAVDVSLSMSADELEIQRHGYAAALTHDNVLQAIADGAHGKIAVTYVEWAGTTWQRVIVPWTVIANRADAERVVAQLSAQPPNSARRTSISGALEFGSDLFAESGYEGTKRVIDISGDGPNNQGAPVNLTRDGVVRQGIVINGLPLMTRGGLSGAYDVNDLDRYYSDCVIGGPGAFMIPVNDWTQFPEAIRRKLVLELAGLEHHHHHH", "soluble on expression in E. coli": "soluble"}, {"sequence": "MTKLAVVGATGLVGTKMLETLNRKNIPFDELVLFSSARSAGQEVEFQEKTYTVQELTDARASEHFDYVLMSAGGGTSEHFAPLFEKAGAIVIDNSSQWRMAEDIDLIVPEVNEPTFTRGIIANPNCSTIQSVVPLKVLQDAYGLKRVAYTTYQAVSGSGMKGKKDLAEGVNGKAPEAYPHPIYNNVLPHIDVFLENGYTKEEQKMIDETRKILNAPDLKVTATCARVPVQDSHSVEIDVTLDKETTAEDIKALFDQDDRVVLVDNPENNEYPMAINSTNKDEVFVGRIRRDDSLENTFHVWCTSDNLLKGAALNAVQVLEQVMRLKGAN", "soluble on expression in E. coli": "soluble"}, {"sequence": "MVKETKLYDLLGVSPSANEQELKKGYRKAALKYHPDKPTGDTEKFKEISEAFEILNDPQKREIYDQYGLEAARSGGPSFGPGGPGGAGG", "soluble on expression in E. coli": "soluble"}, {"sequence": "MLKIGVITMALLSFLNAGWLGNLFDSTPTPYYKMPIDLSKAGNVTETDIRIDEKYSVYVELYYDYRKQKISGDRYGEIIDKYFGRHKLFPIFPIKLTVLKYEKTGTTMVVDKIYYTNSLGRTYSSREIDEFKLQEGSKYHIKVETVEDYPELAELNVEVVIGYIKAK", "soluble on expression in E. coli": "not soluble"}, {"sequence": "MYDVVGVRFKKAGKVYYFDPNQFDISENEFVIVETVRGIEYGKVVITKKQVDENDVVLPLKKVIRIANENDRTIVEENKHAAKEAYQVCQQKVVEHNLDMKLVDVEYTFDRNKIIFYFTADGRIDFRELVKDLAAIFRTRIELRQIGVRDEAKMLGGIGPCGRMLCCSTFLGDFEPVSIKMAKDQNLSLNPAKISGLCGRLMCCLKYENDEYEAAKEQLPDLDQRIQTPHGTGRVIGLNILERLIQVELVDKERIVEYTLDELVNKGVVSSQTTDLEHHHHHH", "soluble on expression in E. coli": "not soluble"}, {"sequence": "MAQAEEINVATVNNGDMIIMQKLSSAWEKETGNKINWIVLEENVLRERVTTDIATNGGQFDIMTIGGYEAPIWGKQGWLAPVDDLGDDYDYADLLDPIKKGLTVDGKLYAVPFYTESSFTLYRKDLFDAAGLKMPDNPTYDQIKDFAAKLTDKSKQQYGICLRGKPGWGENMAFLGTMINTYGGRWFDMDWKPQLTSAPWKKAIADYVALMTSYGPPGAAANGFNENQTLFSSGRCAMWIDATSAAGRVYDPKQSQVADKTGFTRAPVEVTPNGSSWSWSWNLAIPNSTKKLETAKSFVKWATSKAYVKTVGESEGWVAVPPGTRKSTYELPEYKKAAPFADTVLKAIMSADPSKPTKDPVPYTGVQFVAIPEFQSIGTVVGQQIAAALSGQQTVDAALEGAQKQVERDMTRAGYIK", "soluble on expression in E. coli": "not soluble"}, {"sequence": "MDYQLYTLPSGLHVVYKPHAGEVTYAGFAIGVGTRHESSRHHGLAHLTEHMLFKGTSLRNSLQIIRRMEEVGAELNAFTEKESTYVYCIFPKAHFNRATNLLFDIVQHSRFPEEELTKEKTVVIDEIDSYRDNPSELIFDEFENILFRHHPLGHNILGTEASVSRITGQIGRNFLRRHYRPDNMIFFLAGEADLSDWPLNPAEKVSIRNTDGTPLHTLREGFLPRTIRRHKDTYQHHILMGGPAYSLHDDRRIPLSLLNNILGGPGMNSRLNLSLREEHGYVYNVESNYTPYSDTGVFNIYLGCAPRYAEAAMELVRKELRYLIEHPLSPIELESAKRQFKGQLIVSADNKESTFLSLGKSMLLYGKYDPLSDIFHRIDAITSDRLREIAAEVLNPDSMLTLIYC", "soluble on expression in E. coli": "not soluble"}, {"sequence": "GDDNSYSLGDIWIAVATVVPEGNNVYYLRLDDGDKLWPAATNYPNYQPKPNQRALVNFTILADSTQSNLGGFSHYIKVNAIHNILTKSIAKNEGAANDSIYGTDPVSIYNNNMWIGDGYLNIYFETLWGGKTAHFINLIQPDAENDPYTLEFRHNAYDDPQYTIGAGRVAFNLSSLPDTKGETVDLVVNYWTSEGKQAYKLKYNSDKTKMEDTSQGYTNDSISNITDMK", "soluble on expression in E. coli": "soluble"}, {"sequence": "MGSDKIHHHHHHMRDSVFKLSYFLSANEKFHIARVNITSSQDLSLHSHDYAEILWVEKGTGIHHVNGHQFRLSPGDLIMVRPKDRHTFSSSGKGIVIVNVAFPVETLDYFRQRYFEWSNLYFWTTGMFPFQMRLSRDIVKRLSSRAEEAMKYGRSNIQLDSLLLFIFRQITANEKVEDSSEIPVWLFNAIQKFNSPEFFIQGIAGFVTLCDRNIDYVNRIVKLHFHKSLTDLINEFKMQYATTQLSITSMPIKEICTNCGFRNLGHFYKIFRSVYNQTPYEYRRINQLIV", "soluble on expression in E. coli": "not soluble"}, {"sequence": "MTEMKILIVTLTYIEKSIIDEIVNNLSSYGLEVDILLDSRKYLPISAFNWERLQYDAEKVLSFLKSIHDFNYDSIIFLADSDGYIDGYNFVFGLTIDNFAIIFLHRLREEFYNRKPDLDLFMKRVVKEVTHEVGHTLGLSHCNTTGCVMNFSNSVEDVDKKQAKFCKNCAHKIEKLSKYLQQKLEHHHHHH", "soluble on expression in E. coli": "not soluble"}, {"sequence": "MTLYEYDGSHVRKRVFQNTSWIFVTGDRYDIETLYDQLDSTRLKYEYSTMPDIYGYQDGIKIWVRPSHARMVGEIIFSNIGYGRRYRVYNADIDPVLRFMASNGLSFFEMRSVYDPDPDLNVAMVDCSHGKCIVDGEAMGDGRIYDRLMDSHVIVYEGTEQFYRKLMALGIRARYYPGKSFTSYGQISYRDSYLDIADRIAINSRSFFYAESGLSGIYEVSRISHLPPLYVSIVTPGTAVSSMELAEAVKKGMLVPFKKDDHENPKTKWEIMAKDRGGLIFQPLPGLYTDVYEIDFSSMYPSIIVRYDLTPGRISFLPEALEGLLSRRLIYKKMDGESVVYHSRNVALKWLLLTSFGYTGYKNAKFGKIEVHERITELGRKALAEAIAVAHENGFEMIHGIVDSLWIRGSGSIERVVSEISRRTRIDIVVSGHYHWIAFLPERDGTGSPSRYIGLDTSGKYKIRGLMIRRSDVPDLCKAFQMDALRVLSSCTDTRCILEKRREIMDLENYYLRNIRHFPRSYFMVSRKITRRPDEYHVKNLTRSALDLCRDAEELSPGQMISYYVVDEKRKIVDTDGENGIDYGYYRRCLTRALEEINFLFGKNCNIRRLEDFQSFQ", "soluble on expression in E. coli": "not soluble"}, {"sequence": "MYSISFQEDSLLPRERLAKEGVEALSNQELLAILLRTGTRQASVFEIAQKVLNNLSSLTDLKKMTLQELQSLSGIGRVKAIELQAMIELGHRIHKHETLEMESILSSQKLAKKMQQELGDKKQEHLVALYLNTQNQIIHQQTIFIGSVTRSIAEPREILHYAIKHMATSLILVHNHPSGAVAPSQNDDHVTKLVKEACELMGIVLLDHLIVSHSNYFSYREKTDLI", "soluble on expression in E. coli": "not soluble"}, {"sequence": "MSLSDLFTTIKGQVTGKNVRIVLPEGTDERIVGAAARLQKENIVKPILLGNKAEIEAKAKEIGVSVEGIAIHEPATDPLFDELVAAFVERRKGKATEEAARKMLVDPNYFGTMLVYTGKAEGLVSGAAHSTGDTVRPALQIIKTKPGVSKVAGAMIMVRGEERYLFSDVAINIAPVAADLAENAIVSAETAEIFGIDPRVAMLSFSTKGSAKSDETEKVVEATALAKEKAPELTLDGEFQFDAAFVPTVAEKKAPGSVIKGDANVFIFPSLEAGNIGYKIAQRLGNFEAVGPILQGLNAPVNDLSRGCNTDDVYNLTLITAAQAVNKEGHHHHHH", "soluble on expression in E. coli": "soluble"}, {"sequence": "MDLMAYWLCITNEDNWKVIKEKKIWGVAERYKNTINKVKVGDKLIIYEIQRSGKDYKPPYIRGVYEVVSEVYKDSSKIFKPTPRNPNEKFPYRVKLKEIKVFEPPINFKELIPKLKFITNKKRWSGHLMGKAMREIPEEDYKLIVGN", "soluble on expression in E. coli": "soluble"}, {"sequence": "MTYEAGCGLIKALEDPDNRVRQRAVKTLGKRGNPDVLEDLMEALKDSRQPVQEAASEALRKIIAASDSVPVLVKALDATDRNVRKAAIEALWKAGTPEAIPPLLRELDDADWYLRSRAADALADIASPEAALGLIKVMDIHDSPVKKIIVNALGKIGTVEAVEGLVKALEDLEHHHHHH", "soluble on expression in E. coli": "not soluble"}, {"sequence": "MGDTGKLGRIIRHDAFQVWEGDEPPKLRYVFLFRNKIMFTEQDASTSPPSYTHYSSIRLDKYNIRQHTTDEDTIVLQPQEPGLPSFRIKPKDFETSEYVRKAWLRDIAEEQEKYAAERD", "soluble on expression in E. coli": "soluble"}, {"sequence": "PLGSQTTHELTIPNNLIGCIIGRQGANINEIRQMSGAQIKIANPVEGSSGRQVTITGSAASISLAQYLINARLSSEKGMGCS", "soluble on expression in E. coli": "soluble"}]}]}
